Laboratory results published in US20150344570A1 (published 2015).

T1: FcγRIIb (human, UniProt P31994 43-217)
T1 construct: extracellular domain; also called FcgRIIb; CD32B
T1 sequence (looked up): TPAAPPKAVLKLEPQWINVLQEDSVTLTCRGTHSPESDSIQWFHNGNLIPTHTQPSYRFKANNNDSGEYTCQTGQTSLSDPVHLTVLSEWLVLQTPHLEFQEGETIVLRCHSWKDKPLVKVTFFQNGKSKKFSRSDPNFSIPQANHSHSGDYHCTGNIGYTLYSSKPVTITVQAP

B1: GpH7-A5/GpH7-B3 variant P329_01G/GpL16-k0 (antibody, human IgG1, kappa)
heavy 1: not shown
heavy 2: not shown
light: DIVMTQSPLSLPVTPGEPASISCQASESLVHSNRNTYLHWYLQKPGQSPQLLIYKVSNRFSGVPDRFSGSGSGTDFTLKISRVEAEDVGVYYCSQNTHVPPTFGQGTKVEIERTVAAPSVFIFPPSDEQLKSGTASVVCLLNNFYPREAKVQWKVDNALQSGNSQESVTEQDSKDSTYSLSSTLTLSKADYEKHKVYACEVTHQGLSSPVTKSFNRGEC
notes: He Ab; mutation in the GpH7-B3 chain only; also called He Ab
B2: GpH7-A5/GpH7-B3 variant E333_01G/GpL16-k0 (antibody, human IgG1, kappa)
heavy 1: not shown
heavy 2: not shown
light: B1 light
notes: as for B1
B3: GpH7-A5/GpH7-B3 variant I332_12R/GpL16-k0 (antibody, human IgG1, kappa)
heavy 1: not shown
heavy 2: not shown
light: B1 light
notes: as for B1
B4: GpH7-A5/GpH7-B3 variant I336_13S/GpL16-k0 (antibody, human IgG1, kappa)
heavy 1: not shown
heavy 2: not shown
light: B1 light
notes: as for B1
B5: GpH7-A5/GpH7-B3 variant E333_13S/GpL16-k0 (antibody, human IgG1, kappa)
heavy 1: not shown
heavy 2: not shown
light: B1 light
notes: as for B1
B6: GpH7-A5/GpH7-B3 variant E333_02A/GpL16-k0 (antibody, human IgG1, kappa)
heavy 1: not shown
heavy 2: not shown
light: B1 light
notes: as for B1
B7: GpH7-A5/GpH7-B3 variant A330_18N/GpL16-k0 (antibody, human IgG1, kappa)
heavy 1: not shown
heavy 2: not shown
light: B1 light
notes: as for B1
B8: GpH7-A5/GpH7-B3 variant E333_18N/GpL16-k0 (antibody, human IgG1, kappa)
heavy 1: not shown
heavy 2: not shown
light: B1 light
notes: as for B1
B9: GpH7-A5/GpH7-B3 variant L328_05P/GpL16-k0 (antibody, human IgG1, kappa)
heavy 1: not shown
heavy 2: not shown
light: B1 light
notes: as for B1
B10: GpH7-A5/GpH7-B3 variant I336_15Y/GpL16-k0 (antibody, human IgG1, kappa)
heavy 1: not shown
heavy 2: not shown
light: B1 light
notes: as for B1
B11: GpH7-A5/GpH7-B3 variant A330_06M/GpL16-k0 (antibody, human IgG1, kappa)
heavy 1: not shown
heavy 2: not shown
light: B1 light
notes: as for B1
B12: GpH7-A5/GpH7-B3 variant E333_16H/GpL16-k0 (antibody, human IgG1, kappa)
heavy 1: not shown
heavy 2: not shown
light: B1 light
notes: as for B1
B13: GpH7-A5/GpH7-B3 variant A330_13S/GpL16-k0 (antibody, human IgG1, kappa)
heavy 1: not shown
heavy 2: not shown
light: B1 light
notes: as for B1
B14: GpH7-A5/GpH7-B3 variant A330_07I/GpL16-k0 (antibody, human IgG1, kappa)
heavy 1: not shown
heavy 2: not shown
light: B1 light
notes: as for B1
B15: GpH7-A5/GpH7-B3 variant A330_09D/GpL16-k0 (antibody, human IgG1, kappa)
heavy 1: not shown
heavy 2: not shown
light: B1 light
notes: as for B1
B16: GpH7-A5/GpH7-B3 variant A327_16H/GpL16-k0 (antibody, human IgG1, kappa)
heavy 1: not shown
heavy 2: not shown
light: B1 light
notes: as for B1
B17: GpH7-A5/GpH7-B3 variant A330_16H/GpL16-k0 (antibody, human IgG1, kappa)
heavy 1: not shown
heavy 2: not shown
light: B1 light
notes: as for B1
B18: GpH7-A5/GpH7-B3 variant A330_14T/GpL16-k0 (antibody, human IgG1, kappa)
heavy 1: not shown
heavy 2: not shown
light: B1 light
notes: as for B1
B19: GpH7-A5/GpH7-B3 variant E333_11K/GpL16-k0 (antibody, human IgG1, kappa)
heavy 1: not shown
heavy 2: not shown
light: B1 light
notes: as for B1
B20: GpH7-A5/GpH7-B3 variant L328_01G/GpL16-k0 (antibody, human IgG1, kappa)
heavy 1: not shown
heavy 2: not shown
light: B1 light
notes: as for B1
B21: GpH7-A5/GpH7-B3 variant I336_20W/GpL16-k0 (antibody, human IgG1, kappa)
heavy 1: not shown
heavy 2: not shown
light: B1 light
notes: as for B1
B22: GpH7-A5/GpH7-B3 variant I336_01G/GpL16-k0 (antibody, human IgG1, kappa)
heavy 1: not shown
heavy 2: not shown
light: B1 light
notes: as for B1
B23: GpH7-A5/GpH7-B3 variant A330_20W/GpL16-k0 (antibody, human IgG1, kappa)
heavy 1: not shown
heavy 2: not shown
light: B1 light
notes: as for B1
B24: GpH7-A5/GpH7-B3 variant P329_02A/GpL16-k0 (antibody, human IgG1, kappa)
heavy 1: not shown
heavy 2: not shown
light: B1 light
notes: as for B1
B25: GpH7-A5/GpH7-B3 variant A330_08L/GpL16-k0 (antibody, human IgG1, kappa)
heavy 1: not shown
heavy 2: not shown
light: B1 light
notes: as for B1
B26: GpH7-A5/GpH7-B3 variant A330_10E/GpL16-k0 (antibody, human IgG1, kappa)
heavy 1: not shown
heavy 2: not shown
light: B1 light
notes: as for B1
B27: GpH7-A5/GpH7-B3 variant I336_19Q/GpL16-k0 (antibody, human IgG1, kappa)
heavy 1: not shown
heavy 2: not shown
light: B1 light
notes: as for B1
B28: GpH7-A5/GpH7-B3 variant A327_19Q/GpL16-k0 (antibody, human IgG1, kappa)
heavy 1: not shown
heavy 2: not shown
light: B1 light
notes: as for B1
B29: GpH7-A5/GpH7-B3 variant L328_18N/GpL16-k0 (antibody, human IgG1, kappa)
heavy 1: not shown
heavy 2: not shown
light: B1 light
notes: as for B1
B30: GpH7-A5/GpH7-B3 variant A327_20W/GpL16-k0 (antibody, human IgG1, kappa)
heavy 1: not shown
heavy 2: not shown
light: B1 light
notes: as for B1
B31: GpH7-A5/GpH7-B3 variant A330_03V/GpL16-k0 (antibody, human IgG1, kappa)
heavy 1: not shown
heavy 2: not shown
light: B1 light
notes: as for B1
B32: GpH7-A5/GpH7-B3 variant E333_12R/GpL16-k0 (antibody, human IgG1, kappa)
heavy 1: not shown
heavy 2: not shown
light: B1 light
notes: as for B1
B33: GpH7-A5/GpH7-B3 variant I336_02A/GpL16-k0 (antibody, human IgG1, kappa)
heavy 1: not shown
heavy 2: not shown
light: B1 light
notes: as for B1

target: T2, FcγRIa (human, UniProt P12314 16-292); assay: ratio of He/Con_1a to He/Con_2b (FcγRIa over FcγRIIb), SPR
T2 construct: extracellular domain; also called FcgRI; CD64
Method: (§1) The heterodimerized antibodies He Abs in which one of the H chains was introduced with an alteration were assayed for their binding activities to each activating FcγR and inhibitory FcγR according to the method described in Example 4. […] The activating FcγRs in FIGS. 26, 27, 28, and 29 are FcγRIa, FcγRIIa (R), FcγRIIa (H), and FcγRIIIa, respectively.
(§2) Analysis of interaction between objective antibody and the FcγR was carried out using Biacore T100 (GE Healthcare). HBS-EP+ (GE Healthcare) was used as the running buffer, and the measurement temperature was set to 25° C. Chips produced by immobilizing the antigen peptide by the amine coupling method to a Series S Sencor Chip CM5 (GE Healthcare), or alternatively, chips produced by allowing preliminarily biotinylated antigen peptides to interact with and immobilize onto a Series S Sensor Chip SA (certified) (GE Healthcare) were used. Antibodies of interest were captured onto an antigen peptide-immobilized chip, and allowed to interact to each FcγR diluted with running buffer. To regenerate and repeatedly use the chip, the antibodies captured on the chip were washed off by reacting 10 mM glycine-HCl, pH 1.5.

T2 sequence (P12314 16-292): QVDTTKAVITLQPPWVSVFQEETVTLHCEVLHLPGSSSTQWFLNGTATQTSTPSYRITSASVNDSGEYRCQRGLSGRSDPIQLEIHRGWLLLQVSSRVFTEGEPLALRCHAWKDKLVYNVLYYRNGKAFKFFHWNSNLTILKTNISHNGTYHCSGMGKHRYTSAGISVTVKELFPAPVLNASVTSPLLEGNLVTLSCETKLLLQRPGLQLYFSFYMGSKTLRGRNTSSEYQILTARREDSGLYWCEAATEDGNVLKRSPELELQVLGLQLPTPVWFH

Binder | He_1a/2b (Ia/IIb)
B1 | 2.42
B2 | 1.26
B3 | 2.05
B4 | 1.22
B5 | 1.26
B6 | 1.23
B7 | 1.67
B8 | 1.27
B9 | 1.42
B10 | 1.51
B11 | 1.3
B12 | 1.21
B13 | 2.22
B14 | 1.57
B15 | 1.95
B16 | 1.52
B17 | 1.21

Binder | He_1a/2b (Ia/IIb)
B18 | 1.35
B19 | 1.27
B20 | 1.21
B21 | 4.28
B22 | 1.21
B23 | 1.41
B24 | 2.52
B25 | 1.52
B26 | 1.53
B27 | 1.78
B28 | 1.78
B29 | 1.22
B30 | 1.24
B31 | 2.01
B32 | 1.27
B33 | 1.25

target: T2, FcγRIa; assay: SPR (Biacore), captured antibody, soluble FcγR; relative to GpH7-A5/GpH7-B3/GpL16-k0 = 100
Method: as §1, §2

Binder | He/Con_1a
B1 | 101 % of control
B2 | 103 % of control
B3 | 100 % of control
B4 | 102 % of control
B5 | 103 % of control
B6 | 103 % of control
B7 | 106 % of control
B8 | 96.6 % of control
B9 | 92.2 % of control
B10 | 103 % of control
B11 | 105 % of control
B12 | 101 % of control
B13 | 91.5 % of control
B14 | 105 % of control
B15 | 109 % of control
B16 | 96.5 % of control
B17 | 106 % of control

Binder | He/Con_1a
B18 | 105 % of control
B19 | 102 % of control
B20 | 97.2 % of control
B21 | 86.7 % of control
B22 | 109 % of control
B23 | 108 % of control
B24 | 102 % of control
B25 | 107 % of control
B26 | 107 % of control
B27 | 104 % of control
B28 | 96.2 % of control
B29 | 98.7 % of control
B30 | 97.7 % of control
B31 | 106 % of control
B32 | 102 % of control
B33 | 106 % of control

target: T1, FcγRIIb; assay: as above
Method: as §1, §2

Binder | He/Con_2b
B1 | 41.7 % of control
B2 | 81.4 % of control
B3 | 48.9 % of control
B4 | 83.7 % of control
B5 | 81.8 % of control
B6 | 83.8 % of control
B7 | 63.7 % of control
B8 | 76.1 % of control
B9 | 65.1 % of control
B10 | 68.2 % of control
B11 | 80.5 % of control
B12 | 83.3 % of control
B13 | 41.3 % of control
B14 | 67.1 % of control
B15 | 55.6 % of control
B16 | 63.5 % of control
B17 | 87.6 % of control

Binder | He/Con_2b
B18 | 77.9 % of control
B19 | 80.6 % of control
B20 | 80.2 % of control
B21 | 20.3 % of control
B22 | 90.1 % of control
B23 | 76.1 % of control
B24 | 40.5 % of control
B25 | 70.5 % of control
B26 | 70.1 % of control
B27 | 58.2 % of control
B28 | 54.2 % of control
B29 | 80.8 % of control
B30 | 73.8 % of control
B31 | 52.4 % of control
B32 | 80.4 % of control
B33 | 84.9 % of control
